The source of these data is patent publication US20070202045A1.

Assay [1] addresses rabbit albumin (rabbit) (UniProt P49065). The assay can be described thus: direct binding ELISA, immobilized albumin. A general note: ELISA stands for enzyme-linked immunosorbent assay.
Assay [2] concerns the target rat albumin (rat) (UniProt P02770). The assay can be described thus: direct binding ELISA, immobilized albumin.
The target in assay [3] is mouse albumin (mouse) (UniProt P07724). The assay can be described thus: solution binding ELISA; end of the range tied by Table 14 (41 nM).
The target is the same in assay [4]. The assay can be described thus: direct binding ELISA, immobilized albumin.
Assay [5] concerns the target rat albumin (rat) (UniProt P02770). The assay can be described thus: Kd for albumin as listed with the PK data (solution binding ELISA).
For assay [6] the target is unchanged. The assay can be described thus: solution binding ELISA (Scatchard).
The target in assay [7] is mouse albumin (mouse) (UniProt P07724). The assay can be described thus: solution binding ELISA (Scatchard).

Bridges are numbered along the chain shown (N, C = ends). Where no end group is shown, it is not given here. Bounds are passed on as bounds.

Chain of mouse albumin (mouse) (P07724 25-608 limits assumed): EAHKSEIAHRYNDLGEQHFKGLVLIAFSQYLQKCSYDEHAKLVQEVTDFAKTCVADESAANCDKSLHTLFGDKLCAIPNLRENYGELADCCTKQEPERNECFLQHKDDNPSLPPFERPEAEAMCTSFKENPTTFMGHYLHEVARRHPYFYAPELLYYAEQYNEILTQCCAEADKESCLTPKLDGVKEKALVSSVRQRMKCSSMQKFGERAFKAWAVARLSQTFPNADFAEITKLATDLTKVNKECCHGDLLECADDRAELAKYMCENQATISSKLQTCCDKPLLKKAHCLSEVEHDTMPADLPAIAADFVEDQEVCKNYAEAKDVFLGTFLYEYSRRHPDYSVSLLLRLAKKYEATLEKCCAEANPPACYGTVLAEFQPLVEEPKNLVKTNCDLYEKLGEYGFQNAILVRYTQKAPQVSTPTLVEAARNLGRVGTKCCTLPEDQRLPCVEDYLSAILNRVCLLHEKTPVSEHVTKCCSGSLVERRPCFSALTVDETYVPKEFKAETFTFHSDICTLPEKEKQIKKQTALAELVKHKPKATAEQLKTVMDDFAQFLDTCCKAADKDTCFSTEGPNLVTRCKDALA
Chain of rat albumin (rat) (P02770 25-608 limits assumed): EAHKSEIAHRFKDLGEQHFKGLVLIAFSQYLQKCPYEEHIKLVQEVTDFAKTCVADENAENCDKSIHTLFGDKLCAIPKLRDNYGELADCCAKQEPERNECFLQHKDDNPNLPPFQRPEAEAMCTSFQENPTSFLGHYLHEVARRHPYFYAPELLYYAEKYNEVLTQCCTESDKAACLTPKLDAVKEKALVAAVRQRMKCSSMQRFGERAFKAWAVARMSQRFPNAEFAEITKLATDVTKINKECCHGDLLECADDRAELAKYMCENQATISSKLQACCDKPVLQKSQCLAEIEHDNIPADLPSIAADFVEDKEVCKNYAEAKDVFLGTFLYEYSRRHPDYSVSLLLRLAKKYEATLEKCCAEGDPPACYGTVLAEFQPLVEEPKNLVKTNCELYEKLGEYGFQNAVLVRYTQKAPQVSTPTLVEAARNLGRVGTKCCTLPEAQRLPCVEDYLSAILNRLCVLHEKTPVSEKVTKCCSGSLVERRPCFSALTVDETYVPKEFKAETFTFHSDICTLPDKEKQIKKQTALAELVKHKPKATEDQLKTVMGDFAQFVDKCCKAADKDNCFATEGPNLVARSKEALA
Chain of rabbit albumin (rabbit) (P49065 25-608 limits assumed): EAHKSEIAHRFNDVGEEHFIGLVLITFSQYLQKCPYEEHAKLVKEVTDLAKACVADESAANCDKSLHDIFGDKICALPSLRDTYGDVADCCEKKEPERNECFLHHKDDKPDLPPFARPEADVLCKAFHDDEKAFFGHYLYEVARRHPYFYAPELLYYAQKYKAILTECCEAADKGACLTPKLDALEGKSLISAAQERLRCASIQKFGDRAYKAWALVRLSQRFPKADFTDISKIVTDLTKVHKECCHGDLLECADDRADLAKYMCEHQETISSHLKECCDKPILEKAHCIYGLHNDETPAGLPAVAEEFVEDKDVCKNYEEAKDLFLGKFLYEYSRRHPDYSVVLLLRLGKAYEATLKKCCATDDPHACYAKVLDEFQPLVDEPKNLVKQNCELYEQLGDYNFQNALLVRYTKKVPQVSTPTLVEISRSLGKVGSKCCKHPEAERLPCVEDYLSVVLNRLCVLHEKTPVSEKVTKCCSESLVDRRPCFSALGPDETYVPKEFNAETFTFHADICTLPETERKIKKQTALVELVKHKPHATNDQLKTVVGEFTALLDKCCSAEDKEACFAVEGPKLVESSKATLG

In general, EC50 refers to the concentration giving half of the maximal effect. On to {Fab4D5 heavy chain (…CDKTH)}-DICLPRWGCLW (Fab, part only; not given: carrier Fab4D5 heavy and light chains, not shown: another chain or arm of the molecule; large carriers, disulfide 3-9) [AB.Fab4D5-H10], for which the EC50 was > 2000 nM in assay [1] and 8 nM in assay [2].
The term Kd denotes the free concentration of one partner at which half of the binding sites on the other are occupied at equilibrium, for simple one-to-one binding. Take {Fab4D5 heavy chain (…CDKTH)}-IEDICLPRWGCLWE (Fab, part only; not given: carrier Fab4D5 heavy and light chains, not shown: another chain or arm of the molecule; large carriers, disulfide 5-11) [AB.Fab4D5-H8]: in assay [1], the EC50 was 500 nM. The molecule further returned a Kd in assay [3] of 40 nM.
Take {Fab4D5 heavy chain (…CDKTH)}-DICLPRWGCL (Fab, part only; not given: Carrier Fab (trastuzumab), not shown: another chain or arm of the molecule; large carriers, disulfide 3-9) [AB.Fab4D5-H11]: the EC50 is > 2000 nM in assay [1], > 1000 nM in assay [2] and > 2000 nM in assay [4]. Also, the Kd came to 2500 nM in assay [5], 2430 nM in assay [6] and 1250 nM in assay [7].
Consider {Fab4D5 heavy chain (…CDKTH)}-DICLPRWGCLWED (Fab, part only; not given: carrier Fab4D5 heavy and light chains, not shown: another chain or arm of the molecule; large carriers, disulfide 3-9) [AB.Fab4D5-H4], for which the EC50 in assay [1] was 500 nM.
